{"source": "patent US20130059772A1", "about": "“Use of Repeat Sequence Protein Polymers in Personal Care Compositions” (DANISCO US INC., priority 2003, published 2013)", "molecules": {"B1": {"name": "GC2596-26-E: collagen-like repeat sequence protein polymer, head-[(GAHGPAGPK)2(GAQGPAGPG)24(GAHGPAGPK)2]4-tail; SEQ ID NO:34 (Example 5) (protein)", "chain": "MDPVVLQRRDWENPGVTQLNRLAAHPPFASDPMGAHGPAGPKGAHGPAGPKGAQGPAGPGGAQGPAGPGGAQGPAGPGGAQGPAGPGGAQGPAGPGGAQGPAGPGGAQGPAGPGGAQGPAGPGGAQGPAGPGGAQGPAGPGGAQGPAGPGGAQGPAGPGGAQGPAGPGGAQGPAGPGGAQGPAGPGGAQGPAGPGGAQGPAGPGGAQGPAGPGGAQGPAGPGGAQGPAGPGGAQGPAGPGGAQGPAGPGGAQGPAGPGGAQGPAGPGGAHGPAGPKGAHGPAGPKGAHGPAGPKGAHGPAGPKGAQGPAGPGGAQGPAGPGGAQGPAGPGGAQGPAGPGGAQGPAGPGGAQGPAGPGGAQGPAGPGGAQGPAGPGGAQGPAGPGGAQGPAGPGGAQGPAGPGGAQGPAGPGGAQGPAGPGGAQGPAGPGGAQGPAGPGGAQGPAGPGGAQGPAGPGGAQGPAGPGGAQGPAGPGGAQGPAGPGGAQGPAGPGGAQGPAGPGGAQGPAGPGGAQGPAGPGGAHGPAGPKGAHGPAGPKGAHGPAGPKGAHGPAGPKGAQGPAGPGGAQGPAGPGGAQGPAGPGGAQGPAGPGGAQGPAGPGGAQGPAGPGGAQGPAGPGGAQGPAGPGGAQGPAGPGGAQGPAGPGGAQGPAGPGGAQGPAGPGGAQGPAGPGGAQGPAGPGGAQGPAGPGGAQGPAGPGGAQGPAGPGGAQGPAGPGGAQGPAGPGGAQGPAGPGGAQGPAGPGGAQGPAGPGGAQGPAGPGGAQGPAGPGGAHGPAGPKGAHGPAGPKGAHGPAGPKGAHGPAGPKGAQGPAGPGGAQGPAGPGGAQGPAGPGGAQGPAGPGGAQGPAGPGGAQGPAGPGGAQGPAGPGGAQGPAGPGGAQGPAGPGGAQGPAGPGGAQGPAGPGGAQGPAGPGGAQGPAGPGGAQGPAGPGGAQGPAGPGGAQGPAGPGGAQGPAGPGGAQGPAGPGGAQGPAGPGGAQGPAGPGGAQGPAGPGGAQGPAGPGGAQGPAGPGGAQGPAGPGGAHGPAGPKGAHGPAGPKMDPGRYQLSAGRYHYQLVWCQK", "modifications": "silk-elastin repeat sequence protein copolymer"}}, "tested_on": "elastase", "assay": "Elastase inhibition assay (fibroblast lysate, STANA substrate)", "format": "biochemical, human", "procedure": "The RSPP test materials were also tested to determine their effect(s) on elastase activity. In these experiments, human dermal fibroblasts were used as a source of the elastase enzyme. This enzyme was partially purified from the fibroblasts by lysing the cells in an elastase buffer and retaining the soluble portion of the lysate. Portions of this fibroblast lysate were then incubated with test materials and a synthetic elastase substrate, Suc-(Ala3)-p-Nitroaniline (STANA). Elastase acts upon this substrate to release p-nitroaniline, which can be detected spectrophotometrically by measuring the absorbance at a wavelength of 405 nm. An inhibition of the elastase enzyme is noted by a decrease in the amount of released p-nitroaniline when compared to uninhibited enzyme.\nCells were expanded and passed until a sufficient number of cells had been grown (not exceeding 10 passages). When a sufficient number of cells had been grown, the fibroblast lysate containing the elastase enzyme was prepared as follows:\nThe fibroblasts were washed twice with 15 ml of phosphate buffered saline with each wash removed via aspiration. Ice cold PBS (7.5 ml) was then added to the flask and the cells were detached with a cell scraper. The detached cells/PBS was transferred to a 15 ml centrifuge tube on ice. The flask was rinsed again with 7.5 ml of PBS, which was also transferred to the 15 ml tube. […] The protein concentration of the fibroblast lysate was determined using the Pierce BCA Protein Assay kit (see below for details) and the fibroblast lysate was stored at −75° C. until used (for up to 1 year).\nUpon determining the protein concentration of the lysate, a small sample was obtained and the elastase activity of the lysate was determined at 1×, 0.5× and 0.25× concentrations. The activity was determined for each of the different concentrations in exactly the same way that the uninhibited sample was treated in the elastase assay (see below). […] After 1.25 hours, the well plate was removed and read in a 96-well plate reader at 405 nm. The mean absorbances were plotted versus concentration. […]", "data": [{"molecule": "B1", "values": [{"measurement": "Percent Inhibition", "setting": "0.1%", "value": "−13", "unit": "%"}, {"measurement": "Percent Inhibition", "setting": "0.5%", "value": "−20", "unit": "%"}, {"measurement": "Percent Inhibition", "setting": "1%", "value": "−5", "unit": "%"}]}]}
